Target: ZF-GDH (Zif268 fused to N-terminus of AfGDH) (mouse (Zif268); Aspergillus flavus (GDH), UniProt P08046 336-416)
Assay: method not stated; states fusion kept dsDNA binding, with ref 25; TBS: 10 mM Tris-HCl, 100 mM NaCl, pH 7.0; washes with 0.05% Tween-20, block 4% skim milk; 25 °C, 1 h

B1: Zif268 target dsDNA (dsDNA)
DNA 1: GCGTGGGCG
DNA 2: CGCCCACGC
B1: binds.

Source: article PMC7411789, “Application of a Glucose Dehydrogenase-Fused with Zinc Finger Protein to Label DNA Aptamers for the Electrochemical Detection of VEGF”
